Measured values as given in paper PMC10499821 (2023).
Where no end group is shown, it is not given here. The star is where a group is joined. FITC = O=C1OC2(c3ccc(O)cc3Oc3cc(O)ccc32)c2ccc(NC(=S)*)cc21

B1: Nsp9 (natural protein)
chain: NNELSPVALRQMSCAAGTTQTACTDDNALAYYNTTKGGRFVLALLSDLQDLKWARFPKSDGTGTIYTELEPPCRFVTDTPKGPKVKYLYFIKGLNNLNRGMVLGSLAATVRLQ

Assays:
RIF1 1780-1795 = experiment: FP
MCM9 796-811 = experiment: FP
NEK9 737-751 = experiment: FP
MVB12A 166-180 = experiment: FP
Nsp9 [1] = molecular target: Nsp9
Nsp3 Ubl1 = Nsp3 Ubl1 (SARS-CoV-2, UniProt P0DTD1 819-2763); experiment: FP
Nsp9 [2] = molecular target: B1; experiment: FP
Nsp3 ADRP = Nsp3 ADRP (SARS-CoV-2, UniProt P0DTD1 819-2763); experiment: FP
Nsp3 SUD-M = Nsp3 SUD-M (SARS-CoV-2, UniProt P0DTD1 819-2763); experiment: FP

B1
Kd (RIF1 1780-1795): 88 µM
Kd (MCM9 796-811): ~3200 µM
Kd (NEK9 737-751): 111 µM
Kd (MVB12A 166-180): 450 µM

B2: LMTK3 22-36 (peptide)
chain: YPAHPDGFALGRAPLA
Kd (Nsp9 [1]): 34 µM

B3: NYNRIN_(1031–1046) (peptide)
peptide: CPSLSEEILRCLSLHD
Kd (Nsp3 Ubl1): 150 µM

B4: N_(216–231) peptide (peptide)
peptide: DAALALLLLDRLNQLE
Kd (Nsp3 Ubl1): 64 µM

B5: NCOA2_(1074–1089) (peptide)
peptide: SDEGALLDQLYLALRN
Kd (Nsp3 Ubl1): 26 µM

B6: AXIN1_(1–15) (peptide)
peptide: MNIQEQGFPLDLGAS
Kd (Nsp9 [2]): 49 µM

B7: RIF1 1780-1795 (peptide)
chain: NPYSEGQFLDEHHSVN
Kd (Nsp9 [1]): 88 µM

B8: MVB12A 166-180 (peptide)
chain: MQGLSLDAASQPSKGY
Kd (Nsp9 [1]): 450 µM

B9: MBOAT1_(16–31) (peptide)
peptide: GSTYLHPLSELLGIPL
Kd (Nsp3 ADRP): 104 µM

B10: MCM9 796-811 (peptide)
chain: DIGLLPSPGETGVPWR
Kd (Nsp9 [1]): ~3200 µM

B11: LMTK3_(22–36) (peptide)
peptide: PAHPDGFALGRAPLA
Kd (Nsp9 [2]): 34 µM

B12: NKRF_(8–23) (peptide)
peptide: AEGIDIGEMPSYDLVL
Kd (Nsp9 [2]): 50 µM

B13: FITC-DYRK1B 394-409 (peptide)
chain: {FITC}-PGHSPADYLRFQDLVL
Kd (Nsp16): 3.2 µM

B14: PRDM14_(197–213) (peptide)
peptide: FTEEDLHFVLYGVTPS
Kd (Nsp3 SUD-M): 37 µM

B15: AXIN1 1-15 (peptide)
chain: MNIQEQGFPLDLGASY
Kd (Nsp9 [1]): 49 µM

B16: NEK9 737-751 (peptide)
chain: SSGLSIGTVFQSSSPY
Kd (Nsp9 [1]): 111 µM

B17: NOTCH4 1605-1620 (peptide)
chain: FQGAWLGCPEPWEPLL
Kd (Nsp9 [1]): 125 µM

B18: FITC-DNAH2 92-107 (peptide)
chain: {FITC}-AVWTQEHDAILEHFAQ
Kd (Nsp8): ~190 µM
